Results: article PMC3792040, “Nectin-3 (CD113) Interacts with Nectin-2 (CD112) to Promote Lymphocyte Transendothelial Migration” (PLoS ONE, 2013)

B1: PVR-Fc (Fc fusion, human, UniProt P15151 21-343, looked up)
chain: WPPPGTGDVVVQAPTQVPGFLGDSVTLPCYLQVPNMEVTHVSQLTWARHGESGSMAVFHQTQGPSYSESKRLEFVAARLGAELRNASLRMFGLRVEDEGNYTCLFVTFPQGSRSVDIWLRVLAKPQNTAEVQKVQLTGEPVPMARCVSTGGRPPAQITWHSDLGGMPNTSQVPGFLSGTVTVTSLWILVPSSQVDGKNVTCKVEHESFEKPQLLTVNLTVYYPPEVSISGYDNNWYLGQNEATLTCDARSNPEPTGYNWSTTMGPLPPFAVAQGAQLLIRPVDKPINTTLICNVTNALGARQAELTVQVKEGPPSEHSGISRN
notes: PVR (CD155, Necl-5), human, soluble form fused to Fc; Probably the extracellular domain; also called CD155; Necl-5; source: COS cells, transfected, purified from supernatants on Affi-Gel protein A
B2: Nec1-Fc (Fc fusion, human, UniProt Q15223 31-355, looked up)
chain: QVVQVNDSMYGFIGTDVVLHCSFANPLPSVKITQVTWQKSTNGSKQNVAIYNPSMGVSVLAPYRERVEFLRPSFTDGTIRLSRLELEDEGVYICEFATFPTGNRESQLNLTVMAKPTNWIEGTQAVLRAKKGQDDKVLVATCTSANGKPPSVVSWETRLKGEAEYQEIRNPNGTVTVISRYRLVPSREAHQQSLACIVNYHMDRFKESLTLNVQYEPEVTIEGFDGNWYLQRMDVKLTCKADANPPATEYHWTTLNGSLPKGVEAQNRTLFFKGPINYSLAGTYICEATNPIGTRSGQVEVNITEFPYTPSPPEHGRRAGPVPTA
notes: Nectin-1 (CD111), human, soluble form fused to Fc; Probably the extracellular domain; also called Nectin-1; CD111; source: COS cells, transfected, purified from supernatants on Affi-Gel protein A
B3: Nec2-Fc (Fc fusion, human, UniProt Q92692 32-360, looked up)
chain: QDVRVQVLPEVRGQLGGTVELPCHLLPPVPGLYISLVTWQRPDAPANHQNVAAFHPKMGPSFPSPKPGSERLSFVSAKQSTGQDTEAELQDATLALHGLTVEDEGNYTCEFATFPKGSVRGMTWLRVIAKPKNQAEAQKVTFSQDPTTVALCISKEGRPPARISWLSSLDWEAKETQVSGTLAGTVTVTSRFTLVPSGRADGVTVTCKVEHESFEEPALIPVTLSVRYPPEVSISGYDDNWYLGRTDATLSCDVRSNPEPTGYDWSTTSGTFPTSAVAQGSQLVIHAVDSLFNTTFVCTVTNAVGMGRAEQVIFVRETPNTAGAGATGG
notes: Nectin-2 (CD112), human, soluble form fused to Fc; Probably the extracellular domain; also called Nectin-2; CD112; source: COS cells, transfected, purified from supernatants on Affi-Gel protein A

target: T1, soluble Nectin-3 (Nec3-Fc) (human, UniProt Q9NQS3 58-404, biotin (the soluble copy in the in vitro binding assay: 'Biotinylated Nec3-Fc')); assay: ELISA; Fc proteins (10^-7 M) captured on wells by goat anti-human Fc, 2 h 37 °C; free anti-Fc blocked with human immunoglobulin; biotinylated Nec3-Fc (10^-7 M) incubated 2 h at 37 °C in the absence of Ca2+; streptavidin peroxidase, ABTS; settings: both partners purified
T1 construct: Nectin-3 (CD113), human, recombinant soluble form fused to Fc; Probably the extracellular domain; Biotinylated as analyte in the ELISA, not biotinylated when captured in the ELISA or used on cells; also called CD113; source: COS cells, transfected, purified from supernatants on Affi-Gel protein A
T1 sequence (Q9NQS3 58-404): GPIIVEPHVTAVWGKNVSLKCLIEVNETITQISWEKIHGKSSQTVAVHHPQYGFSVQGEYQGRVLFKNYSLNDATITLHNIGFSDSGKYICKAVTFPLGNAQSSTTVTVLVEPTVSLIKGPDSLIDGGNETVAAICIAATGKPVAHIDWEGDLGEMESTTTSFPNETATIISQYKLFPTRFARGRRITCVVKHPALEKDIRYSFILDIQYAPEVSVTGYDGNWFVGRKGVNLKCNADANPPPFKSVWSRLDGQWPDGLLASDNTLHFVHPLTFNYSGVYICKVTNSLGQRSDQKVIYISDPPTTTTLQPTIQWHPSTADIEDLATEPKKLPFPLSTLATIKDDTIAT

Binding result, binds:
B1
B2
B3
